In the RNAGym collection of RNA variant scans (doi:10.1021/acssynbio.7b00057):

B1: Pistol ribozyme (parent)
chain: GGGUCGUUGUUCCAUAAUCGCGUGGAUAUGGCACGCAAGUUUCUACCGGGCACCGUAAAUGUCCGACUGGAGCCGUUCGGGCGGCUAUAAACAGACCUCAGGCCCGAAGCGUGGCGGCACCUGCCGCCGGUGGUAAAAAAGAUCGGAAGAGCACACGUCU

Variants of: B1
Assay: aptazyme ON/OFF ratio, guanine; higher = stronger switching; co-transcriptional cleavage with and without guanine

Variant	aptazyme ON/OFF ratio
U7G U8A G9A U10G U11A C12A C13U	1.07
U7G U8A G9A U10G U11A C12A C13G	1.16
U7G U8A G9A U10G U11A C12A C13A	1.04
U7G U8A G9C U10C U11C C12U C13A	1.02
U7G U8A G9C U10C U11C C12U C13U	1.01
U7G U8A G9C U10C U11C C12U C13G	1.04
U7G U8A G9C U10A U11A C12G C13G	1.01
U7G U8A G9C U10A U11A C12G C13A	1.04
U7G U8A G9C U10A U11A C12G C13U	1.02
U7G U8A G9C U10G C13A	1.11
U7G U8A G9C U10G C13U	1.1
U7G U8A G9C U10G C13G	1.09
U7G U8A G9A U11A C12U	1.25
U7G U8A G9A U11A C12A	1.27
U7G U8A G9A U11A C12G	1.24
U7G U8A G9C U10A U11G C12U	1.03
U7G U8A G9C U10A U11G C12A	1.02
U7G U8A G9C U10A U11G C12G	1.03
U7G U8A G9A U10G U11C C12A C13U	1.14
U7G U8A G9A U10G U11C C12A C13G	1.09
U7G U8A G9A U10G U11C C12A C13A	1.1

Variant	aptazyme ON/OFF ratio
U7G U8A G9A U10G U11C C12U C13G	1.12
U7G U8A G9A U10G U11C C12U C13U	1.1
U7G U8A G9A U10G U11C C12U C13A	1.1
U7G U8A G9C U10A U11G	1.05
U7G U8A G9C U10A U11C	1.06
U7G U8A G9C U10A U11A	1.09
U7G U8A G9C C12U C13A	1.06
U7G U8A G9C C12U C13U	1.03
U7G U8A G9C C12U C13G	1.06
U7G U8A G9A U10G U11G	1.07
U7G U8A G9A U10G U11C	1.03
U7G U8A G9A U10G U11A	1.01
U7G U8A G9C	1.12
U7G U8A G9A U11C C12A C13G	1.12
U7G U8A G9A U11C C12A C13A	1.19
U7G U8A G9A U11C C12A C13U	1.1
U7G U8A G9C U11A C12G	1.04
U7G U8A G9C U11A C12U	1.03
U7G U8A G9C U11A C12A	1.03
U7G U8A G9C U10A U11G C13U	1.02
U7G U8A G9C U10A U11G C13G	1.05

Variant	aptazyme ON/OFF ratio
U7G U8A G9C U10A U11G C13A	1.02
U7G U8A G9A U10G U11A C12U C13G	1.06
U7G U8A G9A U10G U11A C12U C13A	1.18
U7G U8A G9A U10G U11A C12U C13U	1.09
U7G U8A G9C U10A U11A C12U	1.03
U7G U8A G9C U10A U11A C12G	1.03
U7G U8A G9C U10A U11A C12A	1.03
U7G U8A G9A U11C C12G C13G	1.04
U7G U8A G9A U11C C12G C13A	1.08
U7G U8A G9A U11C C12G C13U	1.1
U7G U8A G9C U10A U11G C12G C13G	1.03
U7G U8A G9C U10A U11G C12G C13A	1.05
U7G U8A G9C U10A U11G C12G C13U	1.04
U7G U8A G9C U10C U11C C12A C13G	1
U7G U8A G9C U10C U11C C12A C13U	1.03
U7G U8A G9C U10C U11C C12A C13A	1.05
U7G U8A G9C U10G U11G C13G	1.1
U7G U8A G9C U10G U11G C13U	1.27
U7G U8A G9C U10G U11G C13A	1.19
U7G U8A G9A U10G U11A C12G C13G	1.29
U7G U8A G9A U10G U11A C12G C13A	1.04

Variant	aptazyme ON/OFF ratio
U7G U8A G9A U10G U11A C12G C13U	1.14
U7G U8A G9C U10C C12U C13A	1.04
U7G U8A G9C U10C C12U C13U	1.01
U7G U8A G9C U10C C12U C13G	1.01
U7G U8A G9C U10G C12A C13G	1.03
U7G U8A G9C U10G C12A C13A	1.06
U7G U8A G9C U10G C12A C13U	1.05
U7G U8A G9C U10C U11A C12U C13G	1.04
U7G U8A G9C U10C U11A C12U C13U	1.03
U7G U8A G9C U10C U11A C12U C13A	1.02
U7G U8A G9C U10G U11G C12U	1.32
U7G U8A G9C U10G U11G C12G	1.06
U7G U8A G9C U10G U11G C12A	1.08
U7G U8A G9C U10C U11A C12A C13A	1.01
U7G U8A G9C U10C U11A C12A C13G	1.02
U7G U8A G9C U10C U11A C12A C13U	1.03
U7G U8A G9C U10A U11A C12U C13U	1.05
U7G U8A G9C U10A U11A C12U C13G	1.05
U7G U8A G9C U10A U11A C12U C13A	1.04
U7G U8A G9A U11G C13A	1.13
